{
  "source": "paper PMC4336547",
  "about": "(Cellular and molecular life sciences : CMLS, 2011)",
  "key": {"[1]": {"molecular_target": "T1, murine claudin-3 wild type, untagged (Cld3wt) (mouse), Q9Z0G9", "T1 chain": "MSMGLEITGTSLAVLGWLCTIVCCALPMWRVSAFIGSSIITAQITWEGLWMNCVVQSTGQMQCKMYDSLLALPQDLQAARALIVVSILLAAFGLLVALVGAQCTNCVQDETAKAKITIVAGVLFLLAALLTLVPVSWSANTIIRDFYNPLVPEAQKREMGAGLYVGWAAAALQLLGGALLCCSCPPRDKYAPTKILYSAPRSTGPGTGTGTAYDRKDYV", "test": "contact enrichment", "conditions": "remark: other sources report otherwise"}, "[2]": {"molecular_target": "the molecule itself", "test": "FRET or BRET"}},
  "data": [
    {"binder": "murine claudin-3 wild type, untagged (Cld3wt), Q9Z0G9 1-219 (natural protein) MSMGLEITGTSLAVLGWLCTIVCCALPMWRVSAFIGSSIITAQITWEGLWMNCVVQSTGQMQCKMYDSLLALPQDLQAARALIVVSILLAAFGLLVALVGAQCTNCVQDETAKAKITIVAGVLFLLAALLTLVPVSWSANTIIRDFYNPLVPEAQKREMGAGLYVGWAAAALQLLGGALLCCSCPPRDKYAPTKILYSAPRSTGPGTGTGTAYDRKDYV", "values": [
      {"measurement": "percentage of contacts with EF > 1.5 (PE)", "setting": "[1]", "value": 91, "unit": "%"}
    ]},
    {"binder": "mouse claudin-5 wild type, CFP or YFP fusion (Cld5wt-CFP / Cld5wt-YFP) (natural protein, UniProt O54942 1-218, looked up) MGSAALEILGLVLCLVGWVGLILACGLPMWQVTAFLDHNIVTAQTTWKGLWMSCVVQSTGHMQCKVYESVLALSAEVQAARALTVGAVLLALVALFVTLTGAQCTTCVAPGPVKARVALTGGALYAVCGLLALVPLCWFANIVVREFYDPTVPVSQKYELGAALYIGWAASALLMCGGGLVCCGAWVCTGRPEFSFPVKYSAPRRPTANGDYDKKNYV", "values": [
      {"measurement": "mean FRET efficiency against the negative control Cld5/CRFR1", "setting": "[2]", "value": 10, "unit": "fold"}
    ]}
  ]
}
